Article PMC6981324

B1: heme-free HasA (apoHasA) (natural protein)
chain: MAFSVNYDSSFGGYSIHDYLGQWASTFGDVNHTNGNVTDANSGGFYGGSLSGSQYAISSTANQVTAFVAGGNLTYTLFNEPAHTLYGQLDSLSFGDGLSGGDTSPYSIQVPDVSFGGLNLSSLQAQGHDGVVHQVVYGLMSGDTGALETALNGILDDYGLSVNSTFDQVAAATAVGVQHADSPELLAA
B2: heme-loaded HasA (holoHasA) (natural protein)
chain: B1 chain

Legend:
Experiment in all cases: ITC
[1] = biological target: single mutant HasR (Ile671Gly), Ile671Gly-HasR (Serratia marcescens)
[2] = biological target: wild-type HasR (WT-HasR) (Serratia marcescens)
[3] = biological target: double mutant HasR (Arg297Ala/Asn800Ala), DM-HasR (Serratia marcescens)

Row | Binder | Ka [1] [M⁻¹] | dH [1] [kcal/M] | stoichiometry N [1] | Ka [2] [M⁻¹] | dH [2] [kcal/M] | stoichiometry N [2] | Ka [3] [M⁻¹] | dH [3] [kcal/M] | stoichiometry N [3]
1 | B1 | 1.8e+07 | -54 | 1.06 | 1.7e+08 | -43 | 0.92 | 1.53e+07 | -26 | 1.05
2 | B2 | 9.4e+07 | -46 | 0.99 | 1.1e+06 | -21 | 1.11 | 2.4e+06 | -15 | 1.02
